In patent US10927188B2, “Method for producing short-chain peptide-immobilized carrier, and short-chain peptide-immobilized carrier” (FUJIFILM Corporation, priority 2015, dated 2021):
Where no end group is shown, it is not given here.

Assay: Percentage content of secondary structure by CD (circular dichroism) spectrum
Type: physicochemical
Settings: for Percentage content of secondary structure In HEPES: free peptide in HEPES buffer solution (10 mM HEPES-HCl, 150 mM NaCl, pH 7.4, 25° C.); for Percentage content of secondary structure In MeOH: free peptide in methanol (purity 99.5% by mass)

Row | Substance | Percentage content of secondary structure In HEPES | Percentage content of secondary structure In MeOH
1 | Ac-KAAKEQQKAFYKILH [Short-chain peptide 5] | 36% | 92%
2 | KKKEQQNAFYEILHKKK (SIMILAR (4)..(14) SEQ ID No.2 EQQNAFYEILH; SIMILAR (4)..(10) SEQ ID No.1 EQQNAFY) [Short-chain peptide 3] | 33% | 100%
3 | KKKKEQQNAFYEILHKKKK (SIMILAR (5)..(11) SEQ ID No.1 EQQNAFY; SIMILAR (5)..(15) SEQ ID No.2 EQQNAFYEILH) [Short-chain peptide 4] | 32% | 100%
4 | KKKKKEQQNAFYEILH (SIMILAR (6)..(12) SEQ ID No.1 EQQNAFY; SIMILAR (6)..(16) SEQ ID No.2 EQQNAFYEILH) [Short-chain peptide 2] | 30% | 84%
5 | KKRKEQQKKFYKKLHK [Short-chain peptide 8] | 16% | 88%
6 | KKRKEQQNAFYEILHKRRKK [Short-chain peptide 7] | 35% | 100%
7 | KKRREQQNAFYEILHKRRKK [Short-chain peptide 6] | 35% | 100%
